From US12679878B2, “CRF2 receptor agonists and their use in therapy” (SANOFI, priority 2020, dated 2026)
Starred links: 1 amine or outer side, 2 acyl side, 3 side chain; linkers in the order of their positions; H or OH if unused. Non-standard residues stand in square brackets, D forms with d. Groups on a side chain read outwards from the residue. No end group written: not given here. *: point of attachment. C18 diacid = O=C(O)CCCCCCCCCCCCCCCCC(=O)*; γGlu = O=C(O)[C@H](CCC(=O)[*:2])N[*:1]; AEEA = NCCOCCOCC(=O)O; Aib = CC(C)(N)C(=O)O

B1: SEQ ID NO: 93 (peptide)
peptide: IVLSLDVPIKLK([AEEA-AEEA-γGlu-C18 diacid])QKLLKQERQKKQREKAKTNVQILAQV-NH2
modifications: N-terminus assumed
SMILES: CC[C@H](C)[C@H](N)C(=O)N[C@H](C(=O)N[C@@H](CC(C)C)C(=O)N[C@@H](CO)C(=O)N[C@@H](CC(C)C)C(=O)N[C@@H](CC(=O)O)C(=O)N[C@H](C(=O)N1CCC[C@H]1C(=O)N[C@H](C(=O)N[C@@H](CCCCN)C(=O)N[C@@H](CC(C)C)C(=O)N[C@@H](CCCCNC(=O)COCCOCCNC(=O)COCCOCCNC(=O)CC[C@H](NC(=O)CCCCCCCCCCCCCCCCC(=O)O)C(=O)O)C(=O)N[C@@H](CCC(N)=O)C(=O)N[C@@H](CCCCN)C(=O)N[C@@H](CC(C)C)C(=O)N[C@@H](CC(C)C)C(=O)N[C@@H](CCCCN)C(=O)N[C@@H](CCC(N)=O)C(=O)N[C@@H](CCC(=O)O)C(=O)N[C@@H](CCCNC(=N)N)C(=O)N[C@@H](CCC(N)=O)C(=O)N[C@@H](CCCCN)C(=O)N[C@@H](CCCCN)C(=O)N[C@@H](CCC(N)=O)C(=O)N[C@@H](CCCNC(=N)N)C(=O)N[C@@H](CCC(=O)O)C(=O)N[C@@H](CCCCN)C(=O)N[C@@H](C)C(=O)N[C@@H](CCCCN)C(=O)N[C@H](C(=O)N[C@@H](CC(N)=O)C(=O)N[C@H](C(=O)N[C@@H](CCC(N)=O)C(=O)N[C@H](C(=O)N[C@@H](CC(C)C)C(=O)N[C@@H](C)C(=O)N[C@@H](CCC(N)=O)C(=O)N[C@H](C(N)=O)C(C)C)[C@@H](C)CC)C(C)C)[C@@H](C)O)[C@@H](C)CC)C(C)C)C(C)C
B2: SEQ ID NO: 90 (peptide)
peptide: IVLSLDVPIKLK([AEEA-AEEA-γGlu-C18 diacid])QILLKQERQKKQREKAKTNVQILAQV-NH2
modifications: N-terminus assumed
SMILES: CC[C@H](C)[C@H](N)C(=O)N[C@H](C(=O)N[C@@H](CC(C)C)C(=O)N[C@@H](CO)C(=O)N[C@@H](CC(C)C)C(=O)N[C@@H](CC(=O)O)C(=O)N[C@H](C(=O)N1CCC[C@H]1C(=O)N[C@H](C(=O)N[C@@H](CCCCN)C(=O)N[C@@H](CC(C)C)C(=O)N[C@@H](CCCCNC(=O)COCCOCCNC(=O)COCCOCCNC(=O)CC[C@H](NC(=O)CCCCCCCCCCCCCCCCC(=O)O)C(=O)O)C(=O)N[C@@H](CCC(N)=O)C(=O)N[C@H](C(=O)N[C@@H](CC(C)C)C(=O)N[C@@H](CC(C)C)C(=O)N[C@@H](CCCCN)C(=O)N[C@@H](CCC(N)=O)C(=O)N[C@@H](CCC(=O)O)C(=O)N[C@@H](CCCNC(=N)N)C(=O)N[C@@H](CCC(N)=O)C(=O)N[C@@H](CCCCN)C(=O)N[C@@H](CCCCN)C(=O)N[C@@H](CCC(N)=O)C(=O)N[C@@H](CCCNC(=N)N)C(=O)N[C@@H](CCC(=O)O)C(=O)N[C@@H](CCCCN)C(=O)N[C@@H](C)C(=O)N[C@@H](CCCCN)C(=O)N[C@H](C(=O)N[C@@H](CC(N)=O)C(=O)N[C@H](C(=O)N[C@@H](CCC(N)=O)C(=O)N[C@H](C(=O)N[C@@H](CC(C)C)C(=O)N[C@@H](C)C(=O)N[C@@H](CCC(N)=O)C(=O)N[C@H](C(N)=O)C(C)C)[C@@H](C)CC)C(C)C)[C@@H](C)O)[C@@H](C)CC)[C@@H](C)CC)C(C)C)C(C)C
B3: SEQ ID NO: 92 (peptide)
peptide: IVLSLDVPIKLK([AEEA-AEEA-γGlu-C18 diacid])QKLLEQERQKKQREQAETN[Aib]QILAQV-NH2
modifications: N-terminus assumed
SMILES: CC[C@H](C)[C@H](N)C(=O)N[C@H](C(=O)N[C@@H](CC(C)C)C(=O)N[C@@H](CO)C(=O)N[C@@H](CC(C)C)C(=O)N[C@@H](CC(=O)O)C(=O)N[C@H](C(=O)N1CCC[C@H]1C(=O)N[C@H](C(=O)N[C@@H](CCCCN)C(=O)N[C@@H](CC(C)C)C(=O)N[C@@H](CCCCNC(=O)COCCOCCNC(=O)COCCOCCNC(=O)CC[C@H](NC(=O)CCCCCCCCCCCCCCCCC(=O)O)C(=O)O)C(=O)N[C@@H](CCC(N)=O)C(=O)N[C@@H](CCCCN)C(=O)N[C@@H](CC(C)C)C(=O)N[C@@H](CC(C)C)C(=O)N[C@@H](CCC(=O)O)C(=O)N[C@@H](CCC(N)=O)C(=O)N[C@@H](CCC(=O)O)C(=O)N[C@@H](CCCNC(=N)N)C(=O)N[C@@H](CCC(N)=O)C(=O)N[C@@H](CCCCN)C(=O)N[C@@H](CCCCN)C(=O)N[C@@H](CCC(N)=O)C(=O)N[C@@H](CCCNC(=N)N)C(=O)N[C@@H](CCC(=O)O)C(=O)N[C@@H](CCC(N)=O)C(=O)N[C@@H](C)C(=O)N[C@@H](CCC(=O)O)C(=O)N[C@H](C(=O)N[C@@H](CC(N)=O)C(=O)NC(C)(C)C(=O)N[C@@H](CCC(N)=O)C(=O)N[C@H](C(=O)N[C@@H](CC(C)C)C(=O)N[C@@H](C)C(=O)N[C@@H](CCC(N)=O)C(=O)N[C@H](C(N)=O)C(C)C)[C@@H](C)CC)[C@@H](C)O)[C@@H](C)CC)C(C)C)C(C)C
B4: SEQ ID NO: 95 (peptide)
peptide: IVLSLDVPIKLK([AEEA-AEEA-γGlu-C18 diacid])QKLLKQERQKKEREQAETNKQILAQV-NH2
modifications: N-terminus assumed
SMILES: CC[C@H](C)[C@H](N)C(=O)N[C@H](C(=O)N[C@@H](CC(C)C)C(=O)N[C@@H](CO)C(=O)N[C@@H](CC(C)C)C(=O)N[C@@H](CC(=O)O)C(=O)N[C@H](C(=O)N1CCC[C@H]1C(=O)N[C@H](C(=O)N[C@@H](CCCCN)C(=O)N[C@@H](CC(C)C)C(=O)N[C@@H](CCCCNC(=O)COCCOCCNC(=O)COCCOCCNC(=O)CC[C@H](NC(=O)CCCCCCCCCCCCCCCCC(=O)O)C(=O)O)C(=O)N[C@@H](CCC(N)=O)C(=O)N[C@@H](CCCCN)C(=O)N[C@@H](CC(C)C)C(=O)N[C@@H](CC(C)C)C(=O)N[C@@H](CCCCN)C(=O)N[C@@H](CCC(N)=O)C(=O)N[C@@H](CCC(=O)O)C(=O)N[C@@H](CCCNC(=N)N)C(=O)N[C@@H](CCC(N)=O)C(=O)N[C@@H](CCCCN)C(=O)N[C@@H](CCCCN)C(=O)N[C@@H](CCC(=O)O)C(=O)N[C@@H](CCCNC(=N)N)C(=O)N[C@@H](CCC(=O)O)C(=O)N[C@@H](CCC(N)=O)C(=O)N[C@@H](C)C(=O)N[C@@H](CCC(=O)O)C(=O)N[C@H](C(=O)N[C@@H](CC(N)=O)C(=O)N[C@@H](CCCCN)C(=O)N[C@@H](CCC(N)=O)C(=O)N[C@H](C(=O)N[C@@H](CC(C)C)C(=O)N[C@@H](C)C(=O)N[C@@H](CCC(N)=O)C(=O)N[C@H](C(N)=O)C(C)C)[C@@H](C)CC)[C@@H](C)O)[C@@H](C)CC)C(C)C)C(C)C
B5: SEQ ID NO: 91 (peptide)
peptide: IVLSLDVPIKLK([AEEA-AEEA-γGlu-C18 diacid])QKLLKQERQKKQREKAKTN[Aib]QILAQV-NH2
modifications: N-terminus assumed
SMILES: CC[C@H](C)[C@H](N)C(=O)N[C@H](C(=O)N[C@@H](CC(C)C)C(=O)N[C@@H](CO)C(=O)N[C@@H](CC(C)C)C(=O)N[C@@H](CC(=O)O)C(=O)N[C@H](C(=O)N1CCC[C@H]1C(=O)N[C@H](C(=O)N[C@@H](CCCCN)C(=O)N[C@@H](CC(C)C)C(=O)N[C@@H](CCCCNC(=O)COCCOCCNC(=O)COCCOCCNC(=O)CC[C@H](NC(=O)CCCCCCCCCCCCCCCCC(=O)O)C(=O)O)C(=O)N[C@@H](CCC(N)=O)C(=O)N[C@@H](CCCCN)C(=O)N[C@@H](CC(C)C)C(=O)N[C@@H](CC(C)C)C(=O)N[C@@H](CCCCN)C(=O)N[C@@H](CCC(N)=O)C(=O)N[C@@H](CCC(=O)O)C(=O)N[C@@H](CCCNC(=N)N)C(=O)N[C@@H](CCC(N)=O)C(=O)N[C@@H](CCCCN)C(=O)N[C@@H](CCCCN)C(=O)N[C@@H](CCC(N)=O)C(=O)N[C@@H](CCCNC(=N)N)C(=O)N[C@@H](CCC(=O)O)C(=O)N[C@@H](CCCCN)C(=O)N[C@@H](C)C(=O)N[C@@H](CCCCN)C(=O)N[C@H](C(=O)N[C@@H](CC(N)=O)C(=O)NC(C)(C)C(=O)N[C@@H](CCC(N)=O)C(=O)N[C@H](C(=O)N[C@@H](CC(C)C)C(=O)N[C@@H](C)C(=O)N[C@@H](CCC(N)=O)C(=O)N[C@H](C(N)=O)C(C)C)[C@@H](C)CC)[C@@H](C)O)[C@@H](C)CC)C(C)C)C(C)C
B6: SEQ ID NO: 94 (peptide)
peptide: IVLSLDVPIKLK([AEEA-AEEA-γGlu-C18 diacid])KILLKQERQKKEREQAETNKQILAQV-NH2
modifications: N-terminus assumed
SMILES: CC[C@H](C)[C@H](N)C(=O)N[C@H](C(=O)N[C@@H](CC(C)C)C(=O)N[C@@H](CO)C(=O)N[C@@H](CC(C)C)C(=O)N[C@@H](CC(=O)O)C(=O)N[C@H](C(=O)N1CCC[C@H]1C(=O)N[C@H](C(=O)N[C@@H](CCCCN)C(=O)N[C@@H](CC(C)C)C(=O)N[C@@H](CCCCNC(=O)COCCOCCNC(=O)COCCOCCNC(=O)CC[C@H](NC(=O)CCCCCCCCCCCCCCCCC(=O)O)C(=O)O)C(=O)N[C@@H](CCCCN)C(=O)N[C@H](C(=O)N[C@@H](CC(C)C)C(=O)N[C@@H](CC(C)C)C(=O)N[C@@H](CCCCN)C(=O)N[C@@H](CCC(N)=O)C(=O)N[C@@H](CCC(=O)O)C(=O)N[C@@H](CCCNC(=N)N)C(=O)N[C@@H](CCC(N)=O)C(=O)N[C@@H](CCCCN)C(=O)N[C@@H](CCCCN)C(=O)N[C@@H](CCC(=O)O)C(=O)N[C@@H](CCCNC(=N)N)C(=O)N[C@@H](CCC(=O)O)C(=O)N[C@@H](CCC(N)=O)C(=O)N[C@@H](C)C(=O)N[C@@H](CCC(=O)O)C(=O)N[C@H](C(=O)N[C@@H](CC(N)=O)C(=O)N[C@@H](CCCCN)C(=O)N[C@@H](CCC(N)=O)C(=O)N[C@H](C(=O)N[C@@H](CC(C)C)C(=O)N[C@@H](C)C(=O)N[C@@H](CCC(N)=O)C(=O)N[C@H](C(N)=O)C(C)C)[C@@H](C)CC)[C@@H](C)O)[C@@H](C)CC)[C@@H](C)CC)C(C)C)C(C)C

biological target: human corticotropin-releasing factor 2α (CRF2 α receptor) (human), Q13324; test: cell-based or functional assay
Sequence (Q13324 20-411): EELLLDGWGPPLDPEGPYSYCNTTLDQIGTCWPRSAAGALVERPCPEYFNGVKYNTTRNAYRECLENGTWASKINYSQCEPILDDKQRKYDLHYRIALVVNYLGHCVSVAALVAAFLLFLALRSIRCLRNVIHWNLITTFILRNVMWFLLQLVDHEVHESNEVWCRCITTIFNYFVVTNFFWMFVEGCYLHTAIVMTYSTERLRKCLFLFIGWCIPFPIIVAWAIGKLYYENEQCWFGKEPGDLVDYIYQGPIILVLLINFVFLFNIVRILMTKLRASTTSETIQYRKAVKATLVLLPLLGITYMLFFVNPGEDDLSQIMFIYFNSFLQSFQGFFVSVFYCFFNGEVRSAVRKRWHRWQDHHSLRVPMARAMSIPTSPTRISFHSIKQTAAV

Row | EC50 [nM], 0% HSA | EC50 [nM], 0.1% HSA | Binder
1 | 50.9 nM | – | B1
2 | 3.91 nM | 92.6 nM | B2
3 | 9.17 nM | – | B3
4 | 25 nM | – | B4
5 | 14.3 nM | – | B5
6 | 1.73 nM | 49.1 nM | B6
